Experimental data from paper PMC10512374, “Characterization and Phylogenetic Analysis of a Novel GH43 β-Xylosidase From Neocallimastix californiae” (Frontiers in Fungal Biology, 2021).

Legend:
Xyl43Nc = target: T1, Xyl43Nc (Neocallimastix californiae, UniProt A0A1Y2A0L6); assay: product inhibition of 4-nitrophenyl xyloside hydrolysis, […] nm, curve fit; assay type: biochemical; conditions: competitive, xylose 0-10 mM, substrate 4-nitrophenol-xylopyranoside 0.25-7.5 mM
T1 construct: E. coli BL21 pLysS (DE3); HisTrap and Sephacryl S-200
T1 sequence (A0A1Y2A0L6 1-326): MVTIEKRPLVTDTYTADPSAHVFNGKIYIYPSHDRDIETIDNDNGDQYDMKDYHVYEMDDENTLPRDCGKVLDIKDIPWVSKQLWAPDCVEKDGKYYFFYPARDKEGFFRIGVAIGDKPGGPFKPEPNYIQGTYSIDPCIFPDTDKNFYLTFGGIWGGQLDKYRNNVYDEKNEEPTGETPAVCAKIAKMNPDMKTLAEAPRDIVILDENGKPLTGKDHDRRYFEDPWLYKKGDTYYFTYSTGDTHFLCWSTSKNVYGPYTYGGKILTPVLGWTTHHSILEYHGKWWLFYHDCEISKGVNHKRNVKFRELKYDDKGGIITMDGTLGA

purified protein = substrate: O=[N+]([O-])c1ccc(O[C@@H]2OC[C@@H](O)[C@H](O)[C@H]2O)cc1; assay: purified protein; assay type: biochemical, Neocallimastix californiae; conditions: pH 6, 32 °C, no added metal

| Ki (Xyl43Nc) | Molecule | Km (purified protein) | Vmax (purified protein) | kcat (purified protein) |
| --- | --- | --- | --- | --- |
| 6.11 mM | OC1OC[C@@H](O)[C@H](O)[C@H]1O (stereo partly shown) [xylose] |  |  |  |
|  | Xyl43Nc (Neocallimastix californiae) (protein, E. coli BL21 pLysS (DE3); HisTrap and Sephacryl S-200) MVTIEKRPLVTDTYTADPSAHVFNGKIYIYPSHDRDIETIDNDNGDQYDMKDYHVYEMDDENTLPRDCGKVLDIKDIPWVSKQLWAPDCVEKDGKYYFFYPARDKEGFFRIGVAIGDKPGGPFKPEPNYIQGTYSIDPCIFPDTDKNFYLTFGGIWGGQLDKYRNNVYDEKNEEPTGETPAVCAKIAKMNPDMKTLAEAPRDIVILDENGKPLTGKDHDRRYFEDPWLYKKGDTYYFTYSTGDTHFLCWSTSKNVYGPYTYGGKILTPVLGWTTHHSILEYHGKWWLFYHDCEISKGVNHKRNVKFRELKYDDKGGIITMDGTLGA | 720 µM | 47 µmol/min/mg | 29.3 s⁻¹ |
